Here are results for 1 molecule from US20240147984A1 (SYNKLINO A S, published 2024).

Assay in all cases: cell-based or functional assay
Assay [1] deals with T1, US28 (human cytomegalovirus, UniProt P69332 1-354).
T1 sequence: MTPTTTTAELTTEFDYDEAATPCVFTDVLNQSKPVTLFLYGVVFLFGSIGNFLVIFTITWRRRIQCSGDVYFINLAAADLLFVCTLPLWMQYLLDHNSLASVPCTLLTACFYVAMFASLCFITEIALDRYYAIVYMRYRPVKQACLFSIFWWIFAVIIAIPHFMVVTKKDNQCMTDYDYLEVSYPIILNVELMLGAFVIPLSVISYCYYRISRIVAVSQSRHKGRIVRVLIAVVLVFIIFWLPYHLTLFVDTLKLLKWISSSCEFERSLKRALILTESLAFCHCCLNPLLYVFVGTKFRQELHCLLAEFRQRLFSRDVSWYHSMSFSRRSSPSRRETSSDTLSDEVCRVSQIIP

In assay [2] the target is T1, US28. This is another data set of the same source.
The target in another assay is T2, CX3CR1 (human, UniProt P49238 1-355).
T2 sequence: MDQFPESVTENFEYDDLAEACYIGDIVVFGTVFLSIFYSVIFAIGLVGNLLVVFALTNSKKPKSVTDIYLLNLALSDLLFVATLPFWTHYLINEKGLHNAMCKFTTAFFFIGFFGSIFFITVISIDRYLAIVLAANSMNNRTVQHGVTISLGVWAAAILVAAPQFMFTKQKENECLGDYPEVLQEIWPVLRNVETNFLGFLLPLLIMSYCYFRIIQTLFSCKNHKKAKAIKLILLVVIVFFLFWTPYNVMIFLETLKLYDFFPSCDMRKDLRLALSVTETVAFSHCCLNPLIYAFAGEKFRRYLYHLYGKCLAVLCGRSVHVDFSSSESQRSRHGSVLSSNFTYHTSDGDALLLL

B1: SYN001 (other)
chain: MQHHGVTKCNITCSKMTSKIPVALLIHYQQNQASCGKRAIILETRQHRLACADPKEQWVKDAMQHLDRQAAALTRNRQPRGWEQLEQSGYPVQRLVALYLAARLSWNQVDQVIRNALASPGSGGDLGEAIREQPEQARLALTLAAAESERFVRQGTGNDEAGAASGPADSGDALLERNYPTGAEFLGDGGDISFSTRGTQNWTVERLLQAHRQLEERGYVFVGYHGTFLEAAQSIVFGGVRARSQDLDAIWRGFYIAGDPALAYGYAQDQEPDARGRIRNGALLRVYVPRSSLPGFYRTGLTLAAPEAAGEVERLIGHPLPLRLDAITGPEEEGGRLETILGWPLAERTVVIPSAIPTDPRNVGGDLDPSSIPDKEQAISALPDYASQPGKPPKDE
B1: in the assay with US28 [1], the “EC50 (log), potency assay; SYN001 1 mg/L, 0 min in perfusate at 37 C” value was -9.95 log EC50; concentration unit not printed; the “EC50 (log), potency assay; SYN001 1 mg/L, 15 min in perfusate at 37 C” value is -9.95 log EC50; concentration unit not printed; the “EC50 (log), potency assay; SYN001 1 mg/L, 180 min in perfusate at 37 C” value is -10 log EC50; concentration unit not printed; the “EC50 (log), potency assay; SYN001 1 mg/L, 300 min in perfusate at 37 C” value was -9.93 log EC50; concentration unit not printed. In addition, in the assay with US28 [2], the “Log IC50, cell killing assay” value was -10.7 log IC50; concentration unit not printed and the “Selectivity Ratio US28/CX3CR1 (cell killing IC50)” value amounted to 718 ratio. Further, the “Log IC50, cell killing assay” value with CX3CR1 was -7.82 log IC50; concentration unit not printed.
